Results as given in doi:10.1101/2021.12.04.471219 (bioRxiv, 2021).
Several values for one entry are separate records, joined by “and”; a condition that tells them apart may be missing. Equal entries are not always repeated.

B1: ZO-1 PDZ2 domain (residues 184-264) (domain or fragment)
chain: PTKVTLVKSRKNEEYGLRLASHIFVKEISQDSLAARDGNIQEGDVVLKINGTVTENMSLTDAKTLIERSKGKLKMVVQRDE

Tests used:
[1] = target: MLLT4 PDZ domain (residues 961-1056) (human) (UniProt P55196); test: MST
AUC = target: the molecule itself; test: AUC
[2] = target: B1; test: MST
[3] = target: T1, MPP5 PDZ domain (residues 238-336) (human, UniProt Q8N3R9 238-336); test: MST
T1 sequence: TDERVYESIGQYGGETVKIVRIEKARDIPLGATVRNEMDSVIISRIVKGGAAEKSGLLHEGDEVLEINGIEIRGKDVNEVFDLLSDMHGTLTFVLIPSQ

[4] = target: T2, LNX2 PDZ2 domain (residues 334-426) (human, UniProt Q8N448 334-426); test: MST
T2 sequence: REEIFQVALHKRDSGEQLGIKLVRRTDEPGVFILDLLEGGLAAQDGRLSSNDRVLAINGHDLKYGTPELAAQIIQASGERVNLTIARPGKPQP

[5] = target: PARD3 PDZ3 domain (residues 582-685) (human, UniProt Q8TEW0 582-685); test: MST
Chain of PARD3 PDZ3 domain (residues 582-685) (Q8TEW0 582-685): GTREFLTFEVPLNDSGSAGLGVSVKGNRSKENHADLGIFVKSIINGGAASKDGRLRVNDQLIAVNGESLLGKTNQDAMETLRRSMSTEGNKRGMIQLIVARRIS

C-terminal SARS-CoV-2-E PBM peptide (12-mer, original strain)
Kd [1]: 569 µM

B1
stoichiometry N (AUC): 2 and ~4

NLNSSRVPDLLV [C-terminal SARS-CoV-2-E PBM peptide (12-mer, original strain)]
Kd [2]: 15 µM
Kd [3]: 30 µM
Kd [4]: 289 µM
Kd [5]: 341 µM
